This passage reports Kd results from publication PMC5960627 (Biochemical pharmacology, 2018).

This assay concerns the target Calmodulin (UniProt P0DP23 1-149). As to the kind of experiment: other fluorescence titration.
Turning to FKRYFLQLLKYIPPKAKSH (domain or fragment) [BSAT1R_(309-327), FRET biosensor with AT1R a.a. 309-327 (SMD4JM) between EYFPc and ECFP], the dissociation constant Kd – broadly, the equilibrium constant for the complex coming apart – was 0.51 µM. Consider YTLIWKALKKAYEIQKNK (domain or fragment) [BSAT1R_(215-232), FRET biosensor with AT1R a.a. 215-232 (part of SMD3) between EYFPc and ECFP], for which the equilibrium dissociation constant (Kd) was 1.05 µM.

YTLIAKALKKAAEIQKNQPRNDDIAKII (domain or fragment) [BSAT1R_(215-242mut), FRET biosensor with mutant AT1R a.a. 215-242 (SMD3) between EYFPc and ECFP] registered a Kd of 4.52 µM. The molecule DRYLAIVHPMKSRLRRT (domain or fragment) [BSAT1R_(125-141), FRET biosensor with AT1R a.a. 125-141 (SMD2) between EYFPc and ECFP] came in with an equilibrium dissociation constant (Kd) of 13.9 µM. Regarding AKRYALQLLKAIPPKAQSH (domain or fragment) [BSAT1R_(309-327mut), FRET biosensor with mutant AT1R a.a. 309-327 (SMD4JM) between EYFPc and ECFP], the Kd is 6.6 µM. As for YTLIWKALKKAYEIQKNKPRNDDIFKII (domain or fragment) [BSAT1R_(215-242), FRET biosensor with AT1R a.a. 215-242 (entire SMD3) between EYFPc and ECFP], the dissociation constant (Kd) is 0.36 µM. Compared with the last molecule, the Kd is about 18-fold lower. In the case of DQALAIVHPMKSQLRQT (domain or fragment) [BSAT1R_(125-141mut), FRET biosensor with mutant AT1R a.a. 125-141 (SMD2) between EYFPc and ECFP] it was greater than 318 µM.
